The RNAGym collection of RNA variant scans (doi:10.7554/elife.80360)

B1: HDV Ribozyme (parent)
chain: GGCCGGCAUGGUCCCAGCCUCCUCGCUGGCGCCGGCUGGGCAACAUUCCGAGGGGACCGUCCCCUCGGUAAUGGCGAAUGGGACCCA

Variants of: B1
Assay: self-cleavage, relative activity (ratio to wild type); higher = more cleavage; co-transcriptional
In the case of C21U U47C, the self-cleavage is reported as 0.271.
C22A C32U showed a self-cleavage of 0.19.
C22A A83U showed a self-cleavage of 0.0678.
In the case of C22A A83G, the self-cleavage is reported as 0.14.
C22A C44G gave a self-cleavage of 0.0489.
C22A C44A showed a self-cleavage of 0.151.
C21U U27C showed a self-cleavage of 0.0536.
Work on C21U U27A yielded a self-cleavage of 0.0536.
With C21G G54U the self-cleavage was 0.0875.
For C21G G54A, the self-cleavage was 0.0496.
C22A A77U gave a self-cleavage of 0.101.
Variant C22A A77C has a self-cleavage of 0.0378.
C21G G29A gave a self-cleavage of 0.
For C21G G29C, the self-cleavage was 0.0707.
Work on C22A G28A yielded a self-cleavage of 0.148.
With C22A G28C the self-cleavage was 0.
For C22A G28U, the self-cleavage was 0.106.
With C22A G82C the self-cleavage was 0.
Variant C22A G82A has a self-cleavage of 0.0767.
In the case of C22A G82U, the self-cleavage is reported as 0.111.
For C21U A43G, the self-cleavage was 0.0898.
C21U A43U gave a self-cleavage of 0.13.
For C21G G35C, the self-cleavage was 0.178.
For C21G C57A, the self-cleavage was 0.166.
C21G C57U showed a self-cleavage of 0.138.
With C22G C26A the self-cleavage was 0.156.
Variant C21U C85A has a self-cleavage of 0.366.
With C22A C30G the self-cleavage was 0.154.
In the case of C22A C62A, the self-cleavage is reported as 0.339.
Variant C22A C62U has a self-cleavage of 0.387.
With C22A U65G the self-cleavage was 0.302.
C22G C85U showed a self-cleavage of 0.0845.
Work on C22G C85A yielded a self-cleavage of 0.
For C22A C86A, the self-cleavage was 0.448.
For C22A C86G, the self-cleavage was 0.208.
C21G G67C showed a self-cleavage of 0.0978.
C21U U69C showed a self-cleavage of 0.138.
C21G C75G gave a self-cleavage of 0.0426.
Work on C21U C63U yielded a self-cleavage of 0.341.
C21U C63A gave a self-cleavage of 0.234.
With C22G A56C the self-cleavage was 0.
For C22G A56U, the self-cleavage was 0.133.
Variant C21U C30U has a self-cleavage of 0.0755.
For C21U C30G, the self-cleavage was 0.107.
C21U C64A gave a self-cleavage of 0.185.
Variant C22A C85G has a self-cleavage of 0.219.
For C22A C85A, the self-cleavage was 0.378.
Variant C21U G25U has a self-cleavage of 0.0811.
C22A G59A showed a self-cleavage of 0.359.
Work on C22A G59U yielded a self-cleavage of 0.377.
Work on C22G G29U yielded a self-cleavage of 0.217.
Variant C22G A45G has a self-cleavage of 0.
For C22G A45C, the self-cleavage was 0.0489.
With C21U A56C the self-cleavage was 0.289.
C22G A51C gave a self-cleavage of 0.116.
With C22G A51G the self-cleavage was 0.104.
C22A C33G showed a self-cleavage of 0.213.
Work on C22A C57G yielded a self-cleavage of 0.543.
Work on C22A C57U yielded a self-cleavage of 0.343.
In the case of C22G G31U, the self-cleavage is reported as 0.0361.
With C21U C57A the self-cleavage was 0.233.
Work on C21U C57G yielded a self-cleavage of 0.196.
C22A U60C showed a self-cleavage of 0.424.
Work on C22A U79A yielded a self-cleavage of 0.131.
C22A U79C showed a self-cleavage of 0.18.
C21G G76U gave a self-cleavage of 0.0583.
C22A C41A gave a self-cleavage of 0.475.
With C21G G68A the self-cleavage was 0.0707.
C21G G68C gave a self-cleavage of 0.0554.
C22G G53A gave a self-cleavage of 0.0779.
With C22G G53C the self-cleavage was 0.
Work on C21G G28A yielded a self-cleavage of 0.0744.
In the case of C21G G28C, the self-cleavage is reported as 0.0755.
Work on C22A U46A yielded a self-cleavage of 0.104.
Work on C22A U46C yielded a self-cleavage of 0.0692.
C21G U60A gave a self-cleavage of 0.253.
For C22A G34C, the self-cleavage was 0.0773.
For C22A G34A, the self-cleavage was 0.0573.
C21U G34A gave a self-cleavage of 0.0225.
For C22G G25U, the self-cleavage was 0.102.
With C22G G25C the self-cleavage was 0.0665.
Work on C21U G74C yielded a self-cleavage of 0.158.
For C21U G74A, the self-cleavage was 0.149.
With C21U G74U the self-cleavage was 0.0875.
Variant C22A G38C has a self-cleavage of 0.0346.
For C21G G34A, the self-cleavage was 0.0386.
With C22A G73U the self-cleavage was 0.0573.
Variant C21U G28A has a self-cleavage of 0.0791.
C21U G28U showed a self-cleavage of 0.
With C22A A78C the self-cleavage was 0.0692.
C21U G53A gave a self-cleavage of 0.116.
C21U G53C showed a self-cleavage of 0.188.
With C22A G40C the self-cleavage was 0.0282.
Variant C22A G74U has a self-cleavage of 0.0213.
Variant C22A G74C has a self-cleavage of 0.146.
C21G C64G gave a self-cleavage of 0.
In the case of C22G, the self-cleavage is reported as 0.0832.
With C22A the self-cleavage was 0.306.
C21G C85G gave a self-cleavage of 0.219.
C22A A56U showed a self-cleavage of 0.323.
Variant C21U has a self-cleavage of 0.251.
In the case of C21G G52C, the self-cleavage is reported as 0.111.
C21G G52U showed a self-cleavage of 0.117.
Work on C22A C58G yielded a self-cleavage of 0.38.
C22A C58A showed a self-cleavage of 0.203.
With C22A C58U the self-cleavage was 0.332.
C22G A43U gave a self-cleavage of 0.115.
Work on C22G A43C yielded a self-cleavage of 0.0811.
Variant C22G A43G has a self-cleavage of 0.
Variant C22A C84A has a self-cleavage of 0.0707.
For C22A C84G, the self-cleavage was 0.17.
In the case of C22A C84U, the self-cleavage is reported as 0.256.
C22A C49G showed a self-cleavage of 0.143.
With C21U C41G the self-cleavage was 0.432.
Variant C21U C22A has a self-cleavage of 0.0482.
Work on C21U C22G yielded a self-cleavage of 0.0264.
C21G U46G gave a self-cleavage of 0.0978.
For C22A C61G, the self-cleavage was 0.323.
Work on C22A C61A yielded a self-cleavage of 0.415.
C21G G39U gave a self-cleavage of 0.0378.
C21G G39A gave a self-cleavage of 0.0563.
C22G C30G gave a self-cleavage of 0.0437.
Variant C22G C30U has a self-cleavage of 0.0723.
C22G C30A showed a self-cleavage of 0.0652.
Variant C22G G28C has a self-cleavage of 0.
Work on C22G C64G yielded a self-cleavage of 0.0723.
Work on C22G C64A yielded a self-cleavage of 0.125.
Work on C21U C86U yielded a self-cleavage of 0.282.
C22G C66G showed a self-cleavage of 0.0845.
With C22A U69A the self-cleavage was 0.284.
In the case of C21U C44U, the self-cleavage is reported as 0.62.
Work on C21U C44G yielded a self-cleavage of 0.424.
C22G A71C showed a self-cleavage of 0.151.
Work on C22G A71G yielded a self-cleavage of 0.0573.
C21U A71C showed a self-cleavage of 0.293.
C22A U37A showed a self-cleavage of 0.0554.
For C21U A77C, the self-cleavage was 0.125.
Variant C22A G76U has a self-cleavage of 0.554.
With C22A G76C the self-cleavage was 0.447.
Variant C22A G76A has a self-cleavage of 0.212.
For C21G U65C, the self-cleavage was 0.113.
In the case of C22G G39C, the self-cleavage is reported as 0.0554.
For C22A A87U, the self-cleavage was 0.24.
For C21U G54A, the self-cleavage was 0.159.
For C21U G54U, the self-cleavage was 0.232.
With C21U G31A the self-cleavage was 0.142.
C21U G31C gave a self-cleavage of 0.0723.
With C21U C24U the self-cleavage was 0.0287.
Work on C22A G68C yielded a self-cleavage of 0.22.
Variant C22A G68U has a self-cleavage of 0.212.
C22A G29A gave a self-cleavage of 0.0297.
With C22A G29C the self-cleavage was 0.0449.
In the case of C21G G25C, the self-cleavage is reported as 0.0489.
C21G G25U showed a self-cleavage of 0.
Work on C21G G50U yielded a self-cleavage of 0.0594.
With C21G G50C the self-cleavage was 0.116.
For C21G G50A, the self-cleavage was 0.
Variant C21G U79C has a self-cleavage of 0.0244.
C21G U79A showed a self-cleavage of 0.0875.
Variant C22A C48U has a self-cleavage of 0.433.
C22A C48A showed a self-cleavage of 0.201.
Work on C22G G40U yielded a self-cleavage of 0.104.
C21U U72G gave a self-cleavage of 0.19.
C21U U72A gave a self-cleavage of 0.141.
Variant C21U U60C has a self-cleavage of 0.219.
With C21U U60A the self-cleavage was 0.237.
Variant C21U G50U has a self-cleavage of 0.141.
